Data: publication PMC2063517, “Leptospira interrogans Endostatin-Like Outer Membrane Proteins Bind Host Fibronectin, Laminin and Regulators of Complement” (PLoS ONE, 2007)

Key:
[1] = target: murine laminin (murine); assay: ELISA; 1 µg murine laminin immobilised in microtiter wells, soluble LenA or LenB added in PBS-based binding buffer, detected by anti-polyhistidine; Kd = concentration of Len protein giving half-maximal binding; in some experiments additional NaCl or porcine heparin in the buffer (heparin also preincubated with laminin)
[2] = target: 30-kDa amino-terminal domain of fibronectin (human); assay: ELISA; human plasma fibronectin or its proteolytic fragments (70 kDa, 30 kDa NTD, 45 kDa GBD) immobilised in wells, soluble LenA or LenB added, detected by anti-polyhistidine; Kd = concentration of Len protein giving half-maximal binding
[3] = target: murine laminin (murine); assay: ELISA; data not shown: laminin immobilised, 1 µM LenB with 1 µM or 4 µM heparin in the binding buffer
[4] = target: human plasma fibronectin (intact) (human); assay: ELISA; human plasma fibronectin or its proteolytic fragments (70 kDa, 30 kDa NTD, 45 kDa GBD) immobilised in wells, soluble LenA or LenB added, detected by anti-polyhistidine; Kd = concentration of Len protein giving half-maximal binding; conditions: both partners purified

recombinant LenA (leptospiral endostatin-like protein A), L. interrogans serovar Lai (from UniProt Q8F863 1-240) (natural protein)
binding of 1 µM LenA with 1 µM heparin, percent of the no-heparin control [1]: 26%
percent reduction of binding at 200 mM NaCl against 150 mM NaCl [1]: 49%
percent reduction of binding at 500 mM NaCl against 150 mM NaCl [1]: 60%

recombinant LenB, L. interrogans serovar Bratislava (from UniProt A8SKK5 1-236) (natural protein)
Kd [2]: 69.5 nM
binding of 1 µM LenB with 1 µM heparin, percent of the no-heparin control [3]: 75%
binding of 1 µM LenB with 4 µM heparin, percent of the no-heparin control [3]: 55%
Kd [1]: 118 nM
binding of 0.25 µM LenB with 50 µM heparin (laminin preincubated with 50 µM heparin), percent of the no-heparin control [1]: 25%
percent inhibition of binding at 200 mM NaCl against 150 mM NaCl [1]: 40%
percent inhibition of binding at 500 mM NaCl against 150 mM NaCl [1]: 79%

B1: recombinant LenB, L. interrogans serovar Bratislava (natural protein)
chain: MFKNIFLIFLTGSVVCILWSCGDKKEEDNSDLLLFLLNSLGSSNSAASTVVTSCKDASFCRTFVATNNGAGYDGNLGGISGADAKCAAAKSSNLTGTYKALLAAMGTREAVFVGDGSTRLVDWVLYPNKQYRRSDGTTTTFTTNANSVVTANLQNSVDVGAEKFYWIGVGNQPATFDWEVSLNCNDWNSNNAVNFAIDGTTSSNEVFAGDGATPGGAFGSHNTGCNIRLNLLCVEQ
notes: Made with the vector pET200 (Invitrogen); source: E. coli, inclusion bodies, purified in 8M urea (MagneHis nickel beads), dialyzed against PBS; dissolved into PBS after 2-3 days at 4°C
Kd [4]: 106 nM
